Measured values taken from PMC10709652, “The separation pin distinguishes the pro– and anti–recombinogenic functions of Saccharomyces cerevisiae Srs2” (Nature Communications, 2023).
Changes are numbered by the printed parent chain. Numbers in names are those of the source.

Experiments:
[1] = substrate: Nc1ncnc2c1ncn2[C@@H]1O[C@H](COP(=O)(O)OP(=O)(O)OP(=O)(O)O)[C@@H](O)[C@H]1O; experiment: ATP hydrolysis, gamma-32P-ATP, thin layer chromatography; assay type: biochemical, Saccharomyces cerevisiae; conditions: M13 ssDNA 2.5 µM (nucleotides), 2 mM MgCl2, 100 mM KCl, pH 7.6, 30 °C, 40 nM protein
[2] = substrate: Nc1ncnc2c1ncn2[C@@H]1O[C@H](COP(=O)(O)OP(=O)(O)OP(=O)(O)O)[C@@H](O)[C@H]1O; experiment: as above; assay type: biochemical, Saccharomyces cerevisiae; conditions: M13 ssDNA 2.5 µM (nucleotides), 2 mM MgCl2, 100 mM KCl, pH 7.6, 30 °C, 40 nM protein; remark: listed apart in the source
Source text: ATP hydrolysis, gamma-32P-ATP, thin layer chromatography on Srs2^898 (GFP-Srs2 1-898) | N70A, H100A, F219A, Y283A, R268A, and R389A mutant proteins were all moderately affected

[3] = substrate: Nc1ncnc2c1ncn2[C@@H]1O[C@H](COP(=O)(O)OP(=O)(O)OP(=O)(O)O)[C@@H](O)[C@H]1O; experiment: as above; assay type: biochemical, Saccharomyces cerevisiae; conditions: M13 ssDNA 2.5 µM (nucleotides), 2 mM MgCl2, 100 mM KCl, pH 7.6, 30 °C, 40 nM protein; remark: listed apart in the source
Source text: ATP hydrolysis, gamma-32P-ATP, thin layer chromatography on Srs2^898 (GFP-Srs2 1-898) | The F68A, P671A, and Y775A mutants were all largely unperturbed with respect to ATP hydrolysis

GFP-Srs2 1-898 (WT) = GFP-Srs2 1-898 (WT) (Saccharomyces cerevisiae, UniProt P12954 1-898); experiment: EMSA; no ATP; 30 mM Tris-HCl pH 7.6, 100 mM KCl, 2 mM MgCl2, 1 mM DTT, 0.2 mg/mL BSA, 30 °C 10 min, no ATP; 1.3 µM (nucleotides) ssDNA, 10-100 nM protein; 10% native PAGE in; conditions: protein: recombinant; tags: N-terminal GFP; label: 5' fluorescein
Srs2 898 H650A = Srs2 898 H650A (Saccharomyces cerevisiae, UniProt P12954 1-898, H650A); experiment: as above; conditions: protein: recombinant; tags: N-terminal GFP; label: 5' fluorescein
Srs2 898 F68A = Srs2 898 F68A (Saccharomyces cerevisiae, UniProt P12954 1-898, F68A); experiment: as above; conditions: protein: recombinant; tags: N-terminal GFP; label: 5' fluorescein
Srs2 898 F285A = Srs2 898 F285A (Saccharomyces cerevisiae, UniProt P12954 1-898, F285A); experiment: as above; conditions: protein: recombinant; tags: N-terminal GFP; label: 5' fluorescein
Srs2 898 N70A = Srs2 898 N70A (Saccharomyces cerevisiae, UniProt P12954 1-898, N70A); experiment: as above; conditions: protein: recombinant; tags: N-terminal GFP; label: 5' fluorescein
Srs2 898 F219A = Srs2 898 F219A (Saccharomyces cerevisiae, UniProt P12954 1-898, F219A); experiment: EMSA; no ATP; Kd within 10% of WT; 30 mM Tris-HCl pH 7.6, 100 mM KCl, 2 mM MgCl2, 1 mM DTT, 0.2 mg/mL BSA, 30 °C 10 min, no ATP; 1.3 µM (nucleotides) ssDNA, 10-100 nM protein; 10% native PAGE in; conditions: protein: recombinant; tags: N-terminal GFP; label: 5' fluorescein
Srs2 898 H100A = Srs2 898 H100A (Saccharomyces cerevisiae, UniProt P12954 1-898, H100A); experiment: as above; conditions: protein: recombinant; tags: N-terminal GFP; label: 5' fluorescein
Srs2 898 R286A = Srs2 898 R286A (Saccharomyces cerevisiae, UniProt P12954 1-898, R286A); experiment: EMSA; no ATP; Kd within 10% of WT (printed R268A); 30 mM Tris-HCl pH 7.6, 100 mM KCl, 2 mM MgCl2, 1 mM DTT, 0.2 mg/mL BSA, 30 °C 10 min, no ATP; 1.3 µM (nucleotides) ssDNA, 10-100 nM protein; 10% native PAGE in; conditions: protein: recombinant; tags: N-terminal GFP; label: 5' fluorescein
Srs2 898 Y283A = Srs2 898 Y283A (Saccharomyces cerevisiae, UniProt P12954 1-898, Y283A); experiment: EMSA; no ATP; Kd within 10% of WT (printed Y238A); 30 mM Tris-HCl pH 7.6, 100 mM KCl, 2 mM MgCl2, 1 mM DTT, 0.2 mg/mL BSA, 30 °C 10 min, no ATP; 1.3 µM (nucleotides) ssDNA, 10-100 nM protein; 10% native PAGE in; conditions: protein: recombinant; tags: N-terminal GFP; label: 5' fluorescein

Chain of Srs2 898 F68A (P12954 1-898 F68A): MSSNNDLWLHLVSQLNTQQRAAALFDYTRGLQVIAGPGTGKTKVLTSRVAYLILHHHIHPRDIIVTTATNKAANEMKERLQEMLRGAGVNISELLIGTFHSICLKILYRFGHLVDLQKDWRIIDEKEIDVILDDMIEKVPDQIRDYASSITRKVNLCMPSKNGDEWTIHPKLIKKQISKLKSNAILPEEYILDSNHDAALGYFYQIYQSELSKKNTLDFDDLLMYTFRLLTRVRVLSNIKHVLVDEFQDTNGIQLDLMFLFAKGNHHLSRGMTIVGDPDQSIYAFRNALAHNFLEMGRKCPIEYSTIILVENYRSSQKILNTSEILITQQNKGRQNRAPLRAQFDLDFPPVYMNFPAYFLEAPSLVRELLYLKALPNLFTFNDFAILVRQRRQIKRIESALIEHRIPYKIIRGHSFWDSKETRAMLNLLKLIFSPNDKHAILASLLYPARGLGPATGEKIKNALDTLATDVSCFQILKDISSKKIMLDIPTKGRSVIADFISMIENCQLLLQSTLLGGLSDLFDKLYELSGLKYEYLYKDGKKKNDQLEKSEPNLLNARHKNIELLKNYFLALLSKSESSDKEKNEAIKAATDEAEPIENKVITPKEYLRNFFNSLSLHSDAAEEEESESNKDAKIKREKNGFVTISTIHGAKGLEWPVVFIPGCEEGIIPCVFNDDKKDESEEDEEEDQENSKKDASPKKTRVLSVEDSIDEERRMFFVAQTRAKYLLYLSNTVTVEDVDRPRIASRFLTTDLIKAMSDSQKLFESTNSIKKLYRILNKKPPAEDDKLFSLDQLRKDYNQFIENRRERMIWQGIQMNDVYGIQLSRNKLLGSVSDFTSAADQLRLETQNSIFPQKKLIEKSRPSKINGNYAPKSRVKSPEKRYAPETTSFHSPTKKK
Chain of Srs2 898 H650A (P12954 1-898 H650A): as the sequence (P12954 1-898 F68A) above, with A68F, H650A counted along it
Chain of Srs2 898 N70A (P12954 1-898 N70A): as the sequence (P12954 1-898 F68A) above, with A68F, N70A counted along it

B1: Srs2^898 (GFP-Srs2 1-898) (Saccharomyces cerevisiae S288C) (protein)
chain: MSSNNDLWLHLVSQLNTQQRAAALFDYTRGLQVIAGPGTGKTKVLTSRVAYLILHHHIHPRDIIVTTFTNKAANEMKERLQEMLRGAGVNISELLIGTFHSICLKILYRFGHLVDLQKDWRIIDEKEIDVILDDMIEKVPDQIRDYASSITRKVNLCMPSKNGDEWTIHPKLIKKQISKLKSNAILPEEYILDSNHDAALGYFYQIYQSELSKKNTLDFDDLLMYTFRLLTRVRVLSNIKHVLVDEFQDTNGIQLDLMFLFAKGNHHLSRGMTIVGDPDQSIYAFRNALAHNFLEMGRKCPIEYSTIILVENYRSSQKILNTSEILITQQNKGRQNRAPLRAQFDLDFPPVYMNFPAYFLEAPSLVRELLYLKALPNLFTFNDFAILVRQRRQIKRIESALIEHRIPYKIIRGHSFWDSKETRAMLNLLKLIFSPNDKHAILASLLYPARGLGPATGEKIKNALDTLATDVSCFQILKDISSKKIMLDIPTKGRSVIADFISMIENCQLLLQSTLLGGLSDLFDKLYELSGLKYEYLYKDGKKKNDQLEKSEPNLLNARHKNIELLKNYFLALLSKSESSDKEKNEAIKAATDEAEPIENKVITPKEYLRNFFNSLSLHSDAAEEEESESNKDAKIKREKNGFVTISTIHGAKGLEWPVVFIPGCEEGIIPCVFNDDKKDESEEDEEEDQENSKKDASPKKTRVLSVEDSIDEERRMFFVAQTRAKYLLYLSNTVTVEDVDRPRIASRFLTTDLIKAMSDSQKLFESTNSIKKLYRILNKKPPAEDDKLFSLDQLRKDYNQFIENRRERMIWQGIQMNDVYGIQLSRNKLLGSVSDFTSAADQLRLETQNSIFPQKKLIEKSRPSKINGNYAPKSRVKSPEKRYAPETTSFHSPTKKK
notes: residues 1-898 of 1174 (C-terminal 276 residues omitted), N-terminal GFP tag kept, pET15b, Talon purified; expressed in E. coli Rosetta2 (DE3)
[1]
  Km: 1580 ± 710 µM
  kcat: 51 ± 8 s⁻¹

B2: Srs2^898 (GFP-Srs2 1-898) (Saccharomyces cerevisiae S288C; N70A) (protein)
chain: B1 chain with N70A
notes: as for B1
[2]
  Km: 1320 ± 670 µM
  kcat: 47 ± 7 sec–1

B3: Srs2^898 (GFP-Srs2 1-898) (Saccharomyces cerevisiae S288C; R389A) (protein)
chain: B1 chain with R389A
notes: as for B1
[2]
  Km: 1600 ± 720 µM
  kcat: 44 ± 7 sec–1

B4: Srs2^898 (GFP-Srs2 1-898) (Saccharomyces cerevisiae S288C; F219A) (protein)
chain: B1 chain with F219A
notes: as for B1
[2]
  Km: 1510 ± 660 µM
  kcat: 42 ± 6 sec–1

B5: Srs2^898 (GFP-Srs2 1-898) (Saccharomyces cerevisiae S288C; H650A) (protein)
chain: B1 chain with H650A
notes: as for B1
[1]
  Km: 2910 ± 780 µM
  kcat: 15 ± 2 sec–1

B6: Srs2^898 (GFP-Srs2 1-898) (Saccharomyces cerevisiae S288C; F285A) (protein)
chain: B1 chain with F285A
notes: as for B1
[1]
  Km: 2750 ± 790 µM
  kcat: 25 ± 4 sec–1

B7: Srs2^898 (GFP-Srs2 1-898) (Saccharomyces cerevisiae S288C; H100A) (protein)
chain: B1 chain with H100A
notes: as for B1
[2]
  Km: 1330 ± 710 µM
  kcat: 45 ± 8 sec–1

B8: Srs2^898 (GFP-Srs2 1-898) (Saccharomyces cerevisiae S288C; Y283A) (protein)
chain: B1 chain with Y283A
notes: as for B1
[2]
  Km: 1520 ± 630 µM
  kcat: 44 ± 6 sec–1

B9: Srs2^898 (GFP-Srs2 1-898) (Saccharomyces cerevisiae S288C; F68A) (protein)
chain: B1 chain with F68A
notes: as for B1
[3]
  Km: 1520 ± 710 µM
  kcat: 49 ± 8 sec–1

B10: Srs2^898 (GFP-Srs2 1-898) (Saccharomyces cerevisiae S288C; Y775A) (protein)
chain: B1 chain with Y775A
notes: as for B1
[3]
  Km: 1610 ± 740 µM
  kcat: 51 ± 8 sec–1

B11: Srs2^898 (GFP-Srs2 1-898) (Saccharomyces cerevisiae S288C; P671A) (protein)
chain: B1 chain with P671A
notes: as for B1
[3]
  Km: 1590 ± 720 µM
  kcat: 50 ± 7 sec–1

B12: 40-nt ssDNA (ssDNA)
DNA: ATTAAGCTCTAAGCCATGAATTCAAATGACCTCTTATCAA
GFP-Srs2 1-898 (WT)
  Kd: 29 ± 3 nM
Srs2 898 H650A
  Kd: 46 ± 3 nM
Srs2 898 F68A
  Kd: 31 ± 2 nM
Srs2 898 F285A
  Kd: 41 nM
Srs2 898 N70A
  Kd: 30 ± 3 nM
Srs2 898 F219A
  binding result: binds
Srs2 898 H100A
  binding result: binds
Srs2 898 R286A
  binding result: binds
Srs2 898 Y283A
  binding result: binds
